Assay results reported in US11643670B2, “Methods of enhancing chromosomal homologous recombination” (Massachusetts Institute of Technology, priority 2018, dated 2023).

Columns and labels:
Chd2 locus [1] = experiment: Chd2^R1684H knock-in by PNI/CPI with RAD51, genotyping of F0 pups; format: in vivo, mouse; settings: 18 F0 pups, PNI and CPI, RAD51 protein 10 ng/μL
Procedure: (§1) tracrRNA, crRNAs, and ssODNs were synthesized by Integrated DNA Technologies (TABLE 1). All injection mixtures were prepared in a final volume of 50 μL according to the following methodology: Using RNase-free water, reagents, and consumables, crRNA (final concentration 0.61 μM), tracrRNA (final concentration 0.61 μM), and ultrapure Tris-HCl, pH 7.39 (final concentration 10 mM, ThermoFisher) were mixed and incubated at 95° C. for 5 minutes. The mixtures were cooled to room temperature for 10 minutes on the benchtop, and then, EnGen Cas9-NLS S. pyogenes (New England Biolabs) was added to a final concentration of 30 ng/μL. The mixtures were incubated at 37° C. for 15 minutes before adding any remaining components: ssODN (final concentration 3 ng/μL or 30 ng/μL), RAD51 (Creative Biomart, final concentration 10 ng/μL). Injection mixtures were stored on ice and briefly heated to 37° C. prior to injection. For experiments utilizing RS-1, embryos were cultured in KSOM-AA (EMD Millipore MR-121-D) with […] RS-1 (Sigma) dissolved in DMSO or DMSO (Sigma, 1:1000) for 24 hours, washed, and cultured in EmbryoMax FHM HEPES Buffered Medium (Sigma) until collection for genotyping.
(§2) Female mice (4-5 weeks old, C57BL/6N) were superovulated by IP injection of PMS (5 IU/mouse, three days prior to microinjection) and hCG (5 IU/mouse, 47 hours after PMS injection) and then paired with males. […]

RAD51 puncta = experiment: Immunocytochemistry for RAD51 puncta in zygotes; format: cell-based, mouse
Procedure: Zygotes were fixed overnight at 4° C. in 4% PFA+0.1% Tween-20 in PBS and then briefly transferred to acidified Tyrode's (Sigma T1788) to remove the zona. After washing in PBS+0.1% Tween-20 (PBST), zygotes were permeabilized in PBS+1% Triton X-100 for 1 hour at 4° C. and then blocked for 1 hour at room temperature in blocking solution (PBS+3% BSA+5% normal goat serum). Primary antibody (rabbit anti-RAD51, Abcam ab63801, 1:500) was diluted in blocking solution and applied to coverslips overnight at 4° C. Cells were washed 3 times in PBST before application of secondary antibody (goat anti-rabbit IgG conjugate, Alexa Fluor 488, ThermoFisher A-11008) diluted in blocking solution for 1 hour at room temperature. Nuclei were counterstained with DAPI and coverslips were mounted to slides with Fluoromount Aqueous Mounting Medium (Sigma F4680). Cells were imaged on an Olympus Fluoview FV1000 confocal microscope with a 60× oil immersion objective and variable digital zoom. Raw image files were exported to FIJI^41 for Z-projection (sum slices), channel splitting, and scale bar generation.
Nonetheless, to more directly test the timing of zygotic ICHR, immunocytochemistry (ICC) was performed for RAD51 in uninjected, RAD51-injected, Cas9-injected (with Chd2-targeting crRNA), and Cas9- and RAD51-injected zygotes at three time points: G1 [9 hours post-fertilization (hpf), 1-hour post-injection (hpi)], G2 (14hpf, 6hpf, post S-phase), and M-phase (16hpf, 8hpi).

Chd2 locus [2] = experiment: Chd2^R1684H knock-in by pronuclear injection of Cas9/crRNA/tracrRNA and ssODN, genotyping of cultured embryos; format: cell-based, mouse
Procedure: as §1, §2

B1: RAD51: recombinant human strand exchange protein RAD51 (Creative Biomart RAD51-134H), transcript variant 4 (protein, UniProt Q06609 2-339, looked up)
DNA repair protein RAD51 …: AMQMQLEANADTSVEEESFGPQPISRLEQCGINANDVKKLEEAGFHTVEAVAYAPKKELINIKGISEAKADKILAEAAKLVPMGFTTATEFHQRRSEIIQITTGSKELDKLLQGGIETGSITEMFGEFRTGKTQICHTLAVTCQLPIDRGGGEGKAMYIDTEGTFRPERLLAVAERYGLSGSDVLDNVAYARAFNTDHQTQLLYQASAMMVESRYALLIVDSATALYRTDYSGRGELSARQMHLARFLRMLLRLADEFGVAVVITNQVVAQVDGAAMFAADPKKPIGGNIIAHASTTRLYLRKGRGETRICKIYDSPCLPEAEAMFAINADGVGDAKD
homozygous KI efficiency (Chd2 locus [1]): 55.5%
overall KI efficiency (pups with ≥1 KI allele/total pups) (Chd2 locus [1]): 61.1%
number of RAD51 puncta per zygote (RAD51 puncta; G2 zygotes): single
zygotes Negative for RAD51 puncta (RAD51 puncta; number of zygotes, G2 (14hpf)): 25
zygotes Positive for RAD51 puncta (RAD51 puncta; number of zygotes, G2 (14hpf)): 6
homozygous KI rate relative to injection without RAD51 (Chd2 locus [2]): more than doubled
